Fewer inactive variants are shown than the library holds.
How the values were obtained:
[1] = test system: biotinyl-Phe-oxazolone; assay: self-aminoacylation, catalytic enhancement (BFO) (fold over background); higher = more active; k-Seq, kA / k0A0; sequences stand for … in GGGAAUGGAUCCACAUCUACGAAUUC…UUCACUGCAGACUUGACGAAGCUG
In short: (§1)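 Each biotinyl-aminoacyl-oxazolone, at 2–1250 μM, was incubated with mutagenized RNA pools (0.43 μM) carrying a 21-nt variable region. The 50 μL reactions contained HEPES/NaCl/KCl/MgCl2/CaCl2 buffer with 5% acetonitrile at pH 6.9–7.0 and ran for 90 minutes at room temperature. After streptavidin capture, RNA was measured by qPCR in triplicate and by Illumina sequencing, and catalytic enhancement was calculated as median kA over the uncatalyzed rate from a pseudo-first-order fit of per-sequence fraction reacted.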

[2] = test system: biotinyl-Ile-oxazolone; assay: self-aminoacylation, catalytic enhancement (BIO) (fold over background); higher = more active; k-Seq, kA / k0A0; sequences stand for … in GGGAAUGGAUCCACAUCUACGAAUUC…UUCACUGCAGACUUGACGAAGCUG
In short: as §1

[3] = test system: biotinyl-Met-oxazolone; assay: self-aminoacylation, catalytic enhancement (BMO) (fold over background); higher = more active; k-Seq, kA / k0A0; sequences stand for … in GGGAAUGGAUCCACAUCUACGAAUUC…UUCACUGCAGACUUGACGAAGCUG
In short: as §1

[4] = test system: biotinyl-Val-oxazolone; assay: self-aminoacylation, catalytic enhancement (BVO) (fold over background); higher = more active; k-Seq, kA / k0A0; sequences stand for … in GGGAAUGGAUCCACAUCUACGAAUUC…UUCACUGCAGACUUGACGAAGCUG
In short: as §1

[5] = test system: biotinyl-Leu-oxazolone; assay: self-aminoacylation, catalytic enhancement (BLO) (fold over background); higher = more active; k-Seq, kA / k0A0; sequences stand for … in GGGAAUGGAUCCACAUCUACGAAUUC…UUCACUGCAGACUUGACGAAGCUG
In short: as §1

[6] = test system: biotinyl-Trp-oxazolone; assay: self-aminoacylation, catalytic enhancement (BWO) (fold over background); higher = more active; k-Seq, kA / k0A0; sequences stand for … in GGGAAUGGAUCCACAUCUACGAAUUC…UUCACUGCAGACUUGACGAAGCUG
In short: as §1

Sequence	self-aminoacylation [1]	self-aminoacylation [2]	self-aminoacylation [3]	self-aminoacylation [4]	self-aminoacylation [5]	self-aminoacylation [6]
AAUUUUGCUAAUAGUCGUAAG [Fam3.1 aminoacylation ribozyme variant]	10.9	1.42	1.11	1.44	1.31	4.02
AAUUUUGCUAAUAGUCUCAAG [Fam3.1 aminoacylation ribozyme variant]	2.56	1.38	1.21	1.26	1.19	1.23
AAUUUUGCUAAUUGUCGCAAG [Fam3.1 aminoacylation ribozyme variant]	2.61	2.45	1.92	1.73	2.13	2.21
AAUUUUGUUAAUAGUCGCAAG [Fam3.1 aminoacylation ribozyme variant]	2.48	2.04	2.05	1.72	1.93	2.56
ACACACUUCAAGCAACCGGUC [Fam1B.1 aminoacylation ribozyme variant]	1.43	1.18	1.51	1.54	1.17	1.13
ACACACUUCAAGCAAUCGGAC [Fam1B.1 aminoacylation ribozyme variant]	1.42	1.1	0.97	1.02	0.979	1.43
ACACACUUCAAGCAAUCGGGC [Fam1B.1 aminoacylation ribozyme variant]	2.02	2.48	2.81	2.73	2.34	3.29
ACACACUUCAAGCAAUCGUUC [Fam1B.1 aminoacylation ribozyme variant]	1.43	1.02	0.825	1.23	0.787	1.21
ACACACUUCAAGCAAUCUGUC [Fam1B.1 aminoacylation ribozyme variant]	1.39	0.759	0.567	1.02	0.58	0.683
ACACACUUCAAGCAAUUGGUC [Fam1B.1 aminoacylation ribozyme variant]	1.61	1.09	1.01	1.17	0.945	1.29
ACACACUUCAAGCAUUCGGUC [Fam1B.1 aminoacylation ribozyme variant]	1.5	1.81	1.68	1.87	1.8	2.13
ACACCCUUCAAGCAAUCGGUC [Fam1B.1 aminoacylation ribozyme variant]	2.12	1.01	0.897	1.02	0.984	1.59
ACACUCUUCAAGCAAUCGGUC [Fam1B.1 aminoacylation ribozyme variant]	4.37	0.997	0.9	1.08	1.11	2.4
ACCACCCUGGUCAUCGAGUGA [Fam2.1 aminoacylation ribozyme variant]	27.9	4.75	10.1	5.17	9.22	9.59
ACGACCCUGGUCAUCGAGUGA [Fam2.1 aminoacylation ribozyme variant]	9.21	3.57	6.93	3.77	6.52	7.11
ACGUUUACUAAUAGUCGCAAG [Fam3.1 aminoacylation ribozyme variant]	2.57	1.56	1.35	1.53	1.8	1.41
ACGUUUGCGAAUAGUCGCAAG [Fam3.1 aminoacylation ribozyme variant]	3.56	1.97	1.58	1.45	1.85	2.17
ACGUUUGCUAACAGUCGCAAG [Fam3.1 aminoacylation ribozyme variant]	4.28	1.5	1.53	1.29	1.97	1.94
ACGUUUGCUAAUAGGCGCAAG [Fam3.1 aminoacylation ribozyme variant]	5.88	1.94	1.35	1.61	1.67	0.911
ACGUUUGCUAAUAGUCACAAG [Fam3.1 aminoacylation ribozyme variant]	3.82	1.34	0.95	1.39	1.15	1.82
ACGUUUGCUAAUAGUCGAAAG [Fam3.1 aminoacylation ribozyme variant]	5.96	1.37	1.58	1.24	1.09	2.68
ACGUUUGCUAAUAGUCUCAAG [Fam3.1 aminoacylation ribozyme variant]	3.28	1.11	0.921	1.13	1.02	2.15
ACGUUUGCUAAUAGUGGCAAG [Fam3.1 aminoacylation ribozyme variant]	0.738	0.853	0.75	0.741	0.804	0.59
ACGUUUGCUAAUAGUUGCAAG [Fam3.1 aminoacylation ribozyme variant]	2.12	1.45	1.26	1.17	1.33	1.15
ACGUUUGCUAUUAGUCGCAAG [Fam3.1 aminoacylation ribozyme variant]	1.31	1.5	1.67	1.21	1.18	2.22
ACUACCCUGCUCAUCGAGUGA [Fam2.1 aminoacylation ribozyme variant]	2.39	1.37	1.45	1.85	2.44	1.93

Reference: the supplement of paper PMC9233669
